Consider four molecules from patent US20170058036A1 (published 2017).

The Kd is the free concentration of one partner at which half of the binding sites on the other are occupied at equilibrium, for simple one-to-one binding. Low readings indicate a tighter complex, high ones a looser complex. As usually defined, the EC50 is the midpoint of the concentration-response curve. A higher EC50 goes with a less potent agent.

The target in assay [1] is T1, human dual endothelin-1/VEGF signal peptide receptor (DEspR) on intact cells (human, UniProt B0L3A2 1-85).
T1 construct: also called hDEspR; DEAR
T1 sequence: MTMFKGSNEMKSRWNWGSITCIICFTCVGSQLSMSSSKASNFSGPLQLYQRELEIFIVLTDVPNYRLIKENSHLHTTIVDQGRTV
In words: saturation binding of AF568-labelled mAb to DEspR+ Panc1 cells, FACS. How it is done: Saturation binding curves of monoclonal antibody (mAb) binding to DEspR on Panc1 CSCs. […] Specific binding was determined by FACS analysis using 100,000 cells in 0.25 ml containing increasing concentrations of mAbs. Incubations were done at 4° C. for 20 min and immediately subjected to FACS analysis on a BDTM LSRII Flow cytometer. Each data point was performed in duplicate.
Fully human VH5/VK1 has a slightly better Kd than VH3/VK2 fully human composite antibodies. […] (FIG. 16).

In assay [2] the target is rat DEspR on rat neutrophils (rat). In words: cell-based or functional assay.
The target is the same in assay [3]. Put plainly: cell-based or functional assay. This is another data set of the same source.
The target in assay [4] is T1, human dual endothelin-1/VEGF signal …. Put plainly: FACS, binding to DEspR on intact human cells at 4° C. How it is done:
(§1) Binding was quantified by FACS with corresponding isotype labeled antibodies as background controls. […] Furthermore, 6G8 humanized monoclonal antibodies were developed using two different human IgG Fc regions-human IgG1 and hinge-stabilized human IgG4, thus affirming high-affinity binding.
Binding was determined by FACS analysis.
(§2) Neutrophils (50000/well) were incubated in the absence or presence of mAbs at 37° C. × 4 hrs and live cells counted by using Trypan blue. HUVEC-dependent angiogenesis (20,000 cells/well) was performed as described in the presence or absence of mAbs. Number of polygons and number of branch points were determined after 14 hrs of incubation at 37° C. ND, not done, indeterminate, value greater than upper limit of max dose used in these experiments.
(In flow cytometry, cells or beads pass a laser one at a time.)

Assay [5] has the same target. Put plainly: FACS, AF-568-labeled mAb on Panc1 cells. The protocol:
as §1, §2

B1: 6G8G7 murine anti-DEspR monoclonal antibody (antibody, V domains shown)
VH: EVQLQESGGGLVQPGGSLKLSCAASGFDFSRYWMSWVRQAPGKGLEWIGEINPDSSTINYTPSLKDKFIISRDTAKKTLYLQMSKVRSEDTALYYCARHGRGMDYWSQGTSVTVSS
VL: DIVLTQTNQIMSASVGDRVSVTCKASQNVDSNVAWYQQKPGHSPKALIYSASYRYSRVPDRITGSGSGTDFTLTITNVQSKDLADYFCQQYHSYPLLAFGAGTKLELKR
Regarding B1, the Kd in assay [1] was around 33 nM.

B2: 6g8g7-derived IgG4 humanized monoclonal antibody 1 (antibody)
heavy: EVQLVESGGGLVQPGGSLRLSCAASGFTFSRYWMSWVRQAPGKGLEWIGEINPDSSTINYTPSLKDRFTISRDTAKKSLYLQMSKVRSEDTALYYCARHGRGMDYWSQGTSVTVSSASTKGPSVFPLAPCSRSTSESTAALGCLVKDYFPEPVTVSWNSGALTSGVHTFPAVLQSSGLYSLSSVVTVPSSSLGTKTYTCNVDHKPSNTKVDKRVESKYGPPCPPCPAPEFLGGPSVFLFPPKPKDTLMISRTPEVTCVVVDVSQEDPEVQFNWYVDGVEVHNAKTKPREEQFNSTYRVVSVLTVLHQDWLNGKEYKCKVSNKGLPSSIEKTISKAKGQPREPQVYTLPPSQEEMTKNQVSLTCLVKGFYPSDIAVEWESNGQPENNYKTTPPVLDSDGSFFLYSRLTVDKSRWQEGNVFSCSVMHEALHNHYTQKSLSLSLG
light: DIVLTQSPDILSVSLGERATVNCKASQNVDSNVAWYQQKPGHPPKLLIYSASYRYSRVPDRISGSGSGTDFTLTISNLQAEDVAVYYCQQYHSYPLLAFGAGTKLELKRTVAAPSVFIFPPSDEQLKSGTASVVCLLNNFYPREAKVQWKVDNALQSGNSQESVTEQDSKDSTYSLSSTLTLSKADYEKHKVYACEVTHQGLSSPVTKSFNRGEC
notes: Hinge-stabilized (S228P) human IgG4 / kappa, transiently expressed in HEK293; also called 6g8^IgG4 humab1; 6g8IgG4 humab1
As for B2, the “Rat Neutrophil survival, IC50” value in assay [2] was found to be 1.16 µg/mL. In assay [3], the “Rat activated Neutrophil survival, IC50” value is 1.16 µg/mL. Also, the concentration giving a half-maximal response (EC50) in assay [4] and in assay [5] was 21.1 nM throughout.

B3: IgG1 6G8G7 humanized monoclonal antibody (antibody)
heavy: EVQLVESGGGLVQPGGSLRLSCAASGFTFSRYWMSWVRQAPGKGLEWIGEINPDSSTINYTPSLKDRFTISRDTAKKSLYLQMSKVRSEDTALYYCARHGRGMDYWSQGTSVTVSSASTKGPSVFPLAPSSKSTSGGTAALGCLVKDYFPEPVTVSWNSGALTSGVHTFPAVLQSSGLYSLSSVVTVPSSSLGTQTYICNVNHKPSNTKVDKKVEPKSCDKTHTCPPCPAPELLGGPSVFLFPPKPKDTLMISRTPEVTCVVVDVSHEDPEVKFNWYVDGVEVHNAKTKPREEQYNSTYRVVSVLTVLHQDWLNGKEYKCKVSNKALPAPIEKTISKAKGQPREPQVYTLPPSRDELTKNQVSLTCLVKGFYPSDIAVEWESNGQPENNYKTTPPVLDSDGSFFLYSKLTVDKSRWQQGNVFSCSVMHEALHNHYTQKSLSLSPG
light: B2 light
In the case of B3, the “Rat Neutrophil survival, IC50” value in assay [2] was found to be 6.98 µg/mL. The “Rat activated Neutrophil survival, IC50” value in assay [3] was found to be 6.98 µg/mL.

B4: 7C5B2 murine anti-human DEspR monoclonal antibody (antibody, V domains shown)
VH: QVQLKESGPGLVAPSQSLSITCTVSGFSLKSYAVSWVRQPPGKGLEWLGVIWGDGSTDYHSALISRLSISKDNSKSQFFLRLNSLQTDDTATYYCARGTGTGFAYWGQGTLVTVSA
VL: DVVMTQTPLSLPVSLGDQASISCRSSQSLVHSNGNTYLHWYLQKPGQSPKLLIYKVSNRFSGVPDRFSGSGSGTDFTLKISRVEAEDLGIYFCSQCTHIPWTFGGGTNLEIK
notes: Murine hybridoma antibody raised against the 9-aa N-terminal peptide of DEspR; An IgG2b isotype control was used with it; It was AF568-labelled in the FACS and imaging assays; also called 7C5-murine monoclonal antibody; lead mouse prototype anti-human DEspR monoclonal antibody
In turn, B4 yielded a Kd in assay [1] of around 33 nM.
